Reference: patent US7964598B2 (The J. David Gladstone Institutes, priority 1995, dated 2011)

Test system: apoE4-expressing Neuro-2a cells
Experiment: Neurite outgrowth, apoE4-expressing Neuro-2a cells
Format: cell-based, mouse
Conditions: in the presence of β-VLDL
Description: Cells were grown in DME/F12 containing 10% FBS and G418 (400 μg/ml). On the day the experiment was initiated, the cells were subcultured into 35 mm plates in DME/F12 with 10% FBS. The cells were allowed to adhere to the plastic plates for 2 hr at 37° C., and then the culture medium was changed to N2 medium with or without increasing concentrations of lipoproteins. After 48 hr at 37° C., the media were replaced with the same medium (with or without lipoproteins), and the incubation was continued for an additional 48 hr. […] Neurons were imaged in fluorescence mode with a confocal laser scanning system (MRC-600, BioRad, Hercules, Calif.), and the images were digitized with an Image-1/AT image analysis system (Universal Images, West Chester, Pa.). The neuronal images were coded before characterization, and the following variables were measured: 1) number of neurites (defined as cell surface projections at least one-half the cell diameter) on each neuron; 2) neurite branching (the number of branch points on each neurite); and 3) neurite extension (the length of the longest neurite, measured from the cell body). Typically, in each experiment the neurites of 20 to 40 neurons per plate were measured and the results preserved as the mean±S.E.M. […]

B1: lactoferrin: blocks binding of lipoproteins to both HSPG and LRP (protein, UniProt P02788 20-710, looked up)
Lactotransferrin: GRRRSVQWCAVSQPEATKCFQWQRNMRKVRGPPVSCIKRDSPIQCIQAIAENRADAVTLDGGFIYEAGLAPYKLRPVAAEVYGTERQPRTHYYAVAVVKKGGSFQLNELQGLKSCHTGLRRTAGWNVPIGTLRPFLNWTGPPEPIEAAVARFFSASCVPGADKGQFPNLCRLCAGTGENKCAFSSQEPYFSYSGAFKCLRDGAGDVAFIRESTVFEDLSDEAERDEYELLCPDNTRKPVDKFKDCHLARVPSHAVVARSVNGKEDAIWNLLRQAQEKFGKDKSPKFQLFGSPSGQKDLLFKDSAIGFSRVPPRIDSGLYLGSGYFTAIQNLRKSEEEVAARRARVVWCAVGEQELRKCNQWSGLSEGSVTCSSASTTEDCIALVLKGEADAMSLDGGYVYTAGKCGLVPVLAENYKSQQSSDPDPNCVDRPVEGYLAVAVVRRSDTSLTWNSVKGKKSCHTAVDRTAGWNIPMGLLFNQTGSCKFDEYFSQSCAPGSDPRSNLCALCIGDEQGENKCVPNSNERYYGYTGAFRCLAENAGDVAFVKDVTVLQNTDGNNNEAWAKDLKLADFALLCLDGKRKPVTEARSCHLAMAPNHAVVSRMDKVERLKQVLLHQQAKFGRNGSDCPDKFCLFQSETKNLLFNDNTECLARLHGKTTYEKYLGPQYVAGITNLKKCSTSPLLEACEFLRK
- inhibition of neurite extension seen in the apoE4-expressing cells: blocked the effects of apoE3 and apoE4 on neurite outgrowth
